# Data reported in paper PMC4702141 (Scientific Reports, 2016).
# T1: human BMP4 (human, UniProt P12644 293-408)
# T1 construct: Bone morphogenetic protein 4, human, recombinant; source: bought: R&D Systems
# T1 sequence (looked up): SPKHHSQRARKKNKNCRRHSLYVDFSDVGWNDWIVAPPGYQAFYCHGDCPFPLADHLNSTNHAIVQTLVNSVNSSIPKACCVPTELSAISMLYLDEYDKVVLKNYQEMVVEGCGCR
# T2: human BMP6 (human, UniProt P22004 375-513)
# T2 construct: Bone morphogenetic protein 6, human, recombinant; source: bought: R&D Systems
# T2 sequence (looked up): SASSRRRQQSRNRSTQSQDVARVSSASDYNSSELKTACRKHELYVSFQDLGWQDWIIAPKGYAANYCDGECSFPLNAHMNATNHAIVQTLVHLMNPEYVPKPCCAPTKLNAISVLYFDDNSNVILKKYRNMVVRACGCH
# T3: human BMP7 (human, UniProt P18075 293-431)
# T3 construct: Bone morphogenetic protein 7, human, recombinant; source: bought: R&D Systems
# T3 sequence (looked up): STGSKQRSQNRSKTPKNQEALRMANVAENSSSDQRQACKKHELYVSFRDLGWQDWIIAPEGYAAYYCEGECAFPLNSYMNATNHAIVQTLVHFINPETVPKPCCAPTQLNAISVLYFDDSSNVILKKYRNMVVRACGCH
# T4: mouse GDF-7 (mouse, UniProt P43029 316-461)
# T4 construct: Growth differentiation factor 7, mouse, recombinant; source: bought: R&D Systems
# T4 sequence (looked up): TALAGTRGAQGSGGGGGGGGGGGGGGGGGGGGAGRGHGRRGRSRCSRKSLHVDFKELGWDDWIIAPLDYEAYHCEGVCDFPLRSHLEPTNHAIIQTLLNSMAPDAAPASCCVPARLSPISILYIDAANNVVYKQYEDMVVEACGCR
# T5: BMPRIA-Fc, P36895
# T5 chain: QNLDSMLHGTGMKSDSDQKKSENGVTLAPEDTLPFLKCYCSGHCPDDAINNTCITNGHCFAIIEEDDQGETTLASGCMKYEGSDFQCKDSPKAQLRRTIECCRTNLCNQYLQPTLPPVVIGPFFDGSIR
# B1: recombinant BMPRIB-Fc (Fc fusion, mouse, UniProt P36898 14-126, looked up)
# chain: KKEDGESTAPTPRPKILRCKCHHHCPEDSVNNICSTDGYCFTMIEEDDSGMPVVTSGCLGLEGSDFQCRDTPIPHQRRSIECCTERNECNKDLHPTLPPLKDRDFVDGPIHHK
# notes: BMPRIB (ALK6), mouse, extracellular domain; cDNA fragment NM_007560.3, 4-378 bp, from FANTOM cDNA clones (RIKEN); also called ALK6; source: 293F cells, transfected, purified from culture supernatant (Protein A columns)
# B2: mouse GDF-6 (ligand, UniProt P43028 335-454, looked up)
# chain: TAFASRHGKRHGKKSRLRCSRKPLHVNFKELGWDDWIIAPLEYEAYHCEGVCDFPLRSHLEPTNHAIIQTLMNSMDPGSTPPSCCVPTKLTPISILYIDAGNNVVYKQYEDMVVESCGCR
# notes: Growth differentiation factor 6, mouse, recombinant; source: bought: R&D Systems
# B3: mouse GDF-5 (ligand, UniProt P43027 376-495, looked up)
# chain: APLANRQGKRPSKNLKARCSRKALHVNFKDMGWDDWIIAPLEYEAFHCEGLCEFPLRSHLEPTNHAVIQTLMNSMDPESTPPTCCVPTRLSPISILFIDSANNVVYKQYEDMVVESCGCR
# notes: Growth differentiation factor 5, mouse, recombinant; source: bought: R&D Systems
# B4: BMPRIA-Fc (Fc fusion)
# chain: QNLDSMLHGTGMKSDSDQKKSENGVTLAPEDTLPFLKCYCSGHCPDDAINNTCITNGHCFAIIEEDDQGETTLASGCMKYEGSDFQCKDSPKAQLRRTIECCRTNLCNQYLQPTLPPVVIGPFFDGSIR
# modifications: Extracellular domain; C-terminal human IgG Fc (left out) makes a disulfide-linked dimer. The protein was bought from R&D Systems with species and limits not given; human is taken as the likeliest …
# Columns and labels:
# Experiment in all cases: SPR; BMPRIA-Fc or BMPRIB-Fc captured with an anti-human Fc IgG capture kit; ligands injected at 25 °C, 30 μL/min; HBS-EP (+) running buffer; single-cycle kinetics, 1:1 binding model, Biacore T100; average of 2 or 3 independent analyses
# human BMP4 = target: T1, human BMP4; conditions: both partners purified
# human BMP6 = target: T2, human BMP6; conditions: both partners purified
# mouse GDF-5 = target: B3; conditions: both partners purified
# human BMP7 = target: T3, human BMP7; conditions: both partners purified
# human BMP2 = target: T6, human BMP2 (human, UniProt P12643 283-396); conditions: both partners purified
# T6 construct: Bone morphogenetic protein 2, human, recombinant; source: bought: R&D Systems
# T6 sequence (P12643 283-396): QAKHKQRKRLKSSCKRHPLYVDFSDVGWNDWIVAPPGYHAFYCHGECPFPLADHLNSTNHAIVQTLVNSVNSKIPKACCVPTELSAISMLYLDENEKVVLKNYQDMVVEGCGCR
# mouse GDF-7 = target: T4, mouse GDF-7; conditions: both partners purified
# mouse GDF-6 = target: B2; conditions: both partners purified
# BMPRIA-Fc = target: B4; conditions: both partners purified
# BMPRIA-Fc, P36895 = target: T5, BMPRIA-Fc, P36895; conditions: remark: other sources report otherwise
# recombinant BMPRIB-Fc = target: B1; conditions: both partners purified
binder,measurement,setting,value
B1,Kd,human BMP4,0.221 nM
same,Kd,human BMP6,0.00035 nM
same,Kd,mouse GDF-5,0.129 nM
same,Kd,human BMP7,0.268 nM
same,Kd,human BMP2,0.00248 nM
same,Kd,mouse GDF-7,0.209 nM
same,Kd,mouse GDF-6,0.159 nM
B2,Kd,BMPRIA-Fc,0.48 nM
B3,Kd,BMPRIA-Fc,1.63 nM
B4,Kd,human BMP6,0.0792 nM
same,Kd,mouse GDF-7,0.432 nM
"human BMP7, P18075 293-431 (ligand, here or on the partner: Extracellular domain; C-terminal human IgG Fc (left out) makes a disulfide-linked dimer. The protein was bought from R&D Systems with species and limits not given; human is taken as the likeliest pr) STGSKQRSQNRSKTPKNQEALRMANVAENSSSDQRQACKKHELYVSFRDLGWQDWIIAPEGYAAYYCEGECAFPLNSYMNATNHAIVQTLVHFINPETVPKPCCAPTQLNAISVLYFDDSSNVILKKYRNMVVRACGCH",Kd,"BMPRIA-Fc, P36895",1.95 nM
"human BMP10 (ligand, UniProt O95393 317-424, looked up, Bone morphogenetic protein 10, human, recombinant; source: bought: R&D Systems) NAKGNYCKRTPLYIDFKEIGWDSWIIAPPGYEAYECRGVCNYPLAEHLTPTKHAIIQALVHLKNSQKASKACCVPTKLEPISILYLDKGVVTYKFKYEGMAVSECGCR",Kd,recombinant BMPRIB-Fc,0.00945 nM
